assay: soluble on expression in E. coli; label from the status in PepcDB or PDB records

| Sequence | soluble on expression in E. coli |
| --- | --- |
| MSKQQEQDTPSFGEIRQRLQAGEDFDLAHRLQEREYEMYYNHNRNVNGTIVGDRKKTREEQIAEDEHAASLRRLGHAERSMSDEEYARQLQEEMDRLDASIQMDKEAQLREDARMAWLLQQESSATPAPSRHSGDLISFEDQPQQSSNTTTSSSCQSANNS | not soluble |
| MGSDKIHHHHHHMRWNRMNPFGSYKKVVSARSTLKEVLKKAQDGGIVSTAFIYGLENNLLDGVIVADNAGEFKAVPKVATTPEEVLEAAGTKYTVCPNISVLKSAVREYGCEKIGVVGTPCQVRAVRKLMKYPVGFRHVPDKIALIIGIFCMENFPYYGLKLIVEEHCGVKMEDVVKMDIGKGKFWVYTRWGETKAIKLKETHPYEQIACHVCTDYTAELADISTGSVGSPDGWSTVFIRTAKGEEIFNKMVEDGYLEVKPIEEVKPGLGLVEKLALQKKEKNMKEIEHRKELGLPIPY | not soluble |
| MGSDKIHHHHHHLDRYPQEELSDGSFWKTPDDANKVVSDLYGYLSTWDQDNDINSDNATMGIKWAAGNVSKGIYDPADQGWSGDYANVRQCNLILSKIDEIPDYPEADKTKALGQVYFFRAYIYFNLIRSFGDVPYIDKPLDLKDMEGITRMPRAEVYEKIMADFDKAIAALPTEWGASDYGRVTKGAAMAMKARAALYYGNWDTAATEAKNVMDLGLYELYDKDNTGKYAELFWEKADGCDEFILVTQFNYPDKTHYLMGWECFPTKGWGGMNPTQSLVDAFEDSEGAPISKSKIYDPTDPFKNRDPRLEVDILHDGEEMYGVTIKVAPLASSGSTGINQHNDATETGYYGQKWLDPSLDPLSDGWNMGKDWVHIRYAEVLLTYAEAKNELQGLDPEAFDAVNQVRRRVGMPELQNTDPSKPTYCATQDDLRQRIRNEWRVEFCLEGGKRMWDIRRWGIAKDVLNAPFEGLKYKIVDNPNDPDKKVDGGKMCILYQGDPIILSGSRYSDNNYLFPVPQSEIDLNPALTQNPGY | not soluble |
| MPLVVNVLSTPLNAQPTRTAGFTLPEMMLALSFGSLIALSTAQVLPKLSQQISVLQQHYRLELVMNQAMGAMEKDLRRAGFCHGKCQGEAITIEHYLGETAHSCLIVAYDLNCNGRWEGAKHQESEYFGYRLRNKALESQRGELNCHGRGWEKLFDPRDVTVTHFSVTPLSGQLFKLRLVGHKTGNPAIHHQVTYLIRGNNV | not soluble |
| MCQMPCQFSWPYTHYFTQTKNKEKILNKLIVFTGGPGAGKTSVIEQLKTQGFICAPETGRHVIQMQVANHGSALPWNDKQAFRDEMTKEEVSNYRSFNVRQGDVFFDRSIVDVYGYSKLEQLPISHELITHCQTLRYHSQVFIFPPWASIFSNDEERKQDFSEAVATYQQMVDAYHKFGYQLIEVPKMSVEDRVAFILGSVIELEHHHHHH | soluble |
| MLGMTHFSQQDNFSVAARVLGALFYYAPESAEAAPLVAVLTSDGWETQWPLPEASLAPLVTAFQTQCEETHAQAWQRLFVGPWALPSPPWGSVWLDRESVLFGDSTLALRQWMREKGIQFEMKQNEPEDHFGSLLLMAAWLAENGRQTECEELLAWHLFPWSTRFLDVFIEKAEHPFYRALGELARLTLAQWQSQLLIPVAVKPLFR | not soluble |
| MGKFMMEKFVQTVSSVNYNKGVFSLYFVGQDQKNMAHGVMAESDNDLELKQVVHMPASGFMYMVSMIKNMLEDPRMEAEFNKLVAAGFLPAGDATANSAEDAAAEEKTAAKKRPAQVKK | not soluble |
| MAGDPMVNRETLIARIEQELVQAEQAQHDHDFEKHMYAIHILTSLYASTSNTPHIGEQQMNRRIANHNQMPQSQITQPTHQVTAAEIEAMGGKVNTHSAHHHNKSYSQPSNQQQRLATDDDIGNGESIFDFLEHHHHHH | not soluble |
| NDNSPRFEKSVYEADLAENSAPGTPILQLRAADLDVGVNGQIEYVFGAATESVRRLLRLDETSGWLSVLHRIDREEVNQLRFTVMARDRGQPPKTDKATVVLNIKDENDNVP | soluble |
| MKTTLIISTYNRPEALSVCLDSVRFQTVMPDEVIVGDDGSTSETKDLIESFKKDFPVPLIHLWQEDKGFRLAMMRNKSVAAATGDYIIEIDGDIFLHNKFVEDHKRLAKPGHYLRGTRVNLGQKLTEEICKSKVNRRIYPWTIGIQNRAETAIHSTPVSNFFADRYKKNVSSGLGCNMSFWRSDFLAINGYDEFFEGWGKEDDDLTHRLQRKGCKKRSLRFAGIVYHLWHGHESMESDQKNAEYFRKNNEKNIVYCENGVSKYLKQELEHHHHHH | soluble |
| MPASEQGFWRGMETCGWGGGSYILYAWARNAPNLVLPKDVAFSVGHEQDGIKYFVLQVHYAQPFAGEVHDFSGVTMHISQKKPMNLAAVMLFVSGTPIPPQLPAFQNNITCMFESSTPIHPFAFRTHTHAMGRLVSAFFKHDGHWTKIGKRNPQWPQLFEGIPSKLMIGSGDQMSASCRFDSMDKNRTVNMGAMGVDEMCNFYMMFHYDAKLDNPYPQGAICAKDYPSKMIDYPKDGFELLPSRPELEHHAHQSKVPFGIVQEAIHENLGGVKLGQVAGLAFNNEQQLLVFQRAGRVWDASTFDNYNILLDKKPIADPVILVISYSGNQTKLERKLGGGQFYLPHGIYVDKDGFVYTTDVGSHTVAKWKIEGNELKNIWTSGELLMPGSDQHHYCKPTGITRVEDQLYVTDGYCNSRVVVLDLNGKRIRQFGLPGEDAGQFNLPHDIVSDSAGRLLVTDRENGRVQHMTTQGHVIEEFKSTMFTNIYSAASHEDYVFMVPGRPIMGHETEGIAVFVGRSGTGLIEYAFGPTTKGKREQMGPQFGQPHCLRVCPDGGHIFVGDIAEGKARLWQFKVNLLEMCGSKYDMIKIKLMILP | not soluble |
| MPFIECHIATGLSVARKQQLIRDVIDVTNKSIGSDPKIINVLLVEHAEANMSISGRIHGEAASTERTPAVS | soluble |
| MSYQIQYNDFPTFLRKHFPYKVQKISLNAGFTCPNRDGTKGWGGCTYCNNQTFNPDYCRTEKSIATQLEEGKCFFAHKYPEMKYLAYFQAYTNTYAELEGLKRKYEEALQVDGVVGLVIGTRPDCMPEELLQYLEELNRHTFLMVEYGIESASDETLRRINRGHTYADTVEAVQRTAACGILTGGHVILGLPGETHDTMVEQAGILSALPLSTLKIHQLQLIRGTRMAHEYEENPE | not soluble |
| MYQDLIRNELNEAAETLANFLKDDANIHAIQRAAVLLADSFKAGGKVLSCGNGGSHCDAMHFAEELTGRYRENRPGYPAIAISDVSHISCVSNDFGYDYIFSRYVEAVGREGDVLLGISTSGNSGNVIKAIAAAREKGMKVITLTGKDGGKMAGTADIEIRVPHFGYADRIQEIHIKVIHILIQLIEKEMVK | not soluble |
| MGHHHHHHSHMVSSNFWFKYPKTCSKVEHFVSILGKCFESPWTTKALSETACEDSEENKQRITGAQTLPKHVSTSSDEGSPSASTPMINKTGFKFSAEKPVIEVPSMTILDKKDGEQAKALFEKVRKFRAHVEDSDLIYKLYVVQTASPFPNQ | not soluble |
| MTIAVDFDGTIVEHRYPRIGEEIPFAVETLKLLQQEKHRLILWSVREGELLDEAIEWCRARGLEFYAANKDYPEEERDHQGFSRKLKADLFIDDRNVGGIPDWGIIYEMIKEKKTFADIYSQQREENTSQKKKRKWLPF | soluble |
| MGSDKIHHHHHHMIYKMTDKDMEILFERISKDFQSFGSKEENGDIVFGDIQRFSDISEEKSSYPPKDFLIERSENILSIPRAEKRAVFGVKSCDLRGFYIMDKQILGKDPFYTVKRENTMFINFVCEKMCSGGFCTSFGGPVLDEYDVQVLHKNGYFYVEASDKYEKYLFGFSESDDQNVFEEHKKEFESLYGRLNVDGIENRMKWSSNLWNKFANYCISCGACNYSCPTCYCVDVYDDDDGRKKEWDSCILEGFTRTAAGNVRPELSERLRQRFYHKFKYYKLSRGAYLCTGCNRCVDDCPVDIDIKEVITHDYDRE | not soluble |
| AIAASGKRKGLSFDDKKTRLLELFNETCDFYTLKELEKIAPKLKGIITQSVKDVLQSLVDDDLVNSDKCGVQTIYWCLPSEAVAKRQRRLDALQQQLAEKRQKLTALQRQLVQVQAGREDSVERTAVLERLAACEAAWRERQRTLESYLECDPDVLAQRETETKTLIEQANRWTDNLYVIRSYVQRNLGVDLDLFDQQFELKPALQYLE | soluble |
| MRGSHHHHHHGSATSANTDRIATAELGIAENKKDAQIAKAQANENKDGIAKNQADIQLHDKKITNLGILHSMVARAVGNNTQGVATNKADIAKNQADIANNIKNIYELAQQQDQHSSDIKTLAKVSAANTDRIAKNKAEADASFETLTKNQKLCSQA | soluble |
| MKNLPISIGRIVMQGGHVNFQDQFIQPNYRAYLTDLAGRIGPLNPRKTGEVDIRGAVDKTAPLKISGSVDAFGRELNLDITASAKGIDMPTFSPYSGKYIGYAIEKGKLSVDVHYHVEHGELTAENSIFLDQLTFGEKIESPDAVSIPVNLALALLEHHHHHH | not soluble |
| MGQLPPRARAFFAAQRPLRVLMPGCGSAADLPPLLAMGHDVLAVDFSEAAIELAARQWPEAAGRLLLADFFQLQMPAFDCLFERAFLCALPVGMRSQYAERVAALIAPGGALAGVFFVADTERGPPFGMQAEALRELLSPWFELEEDLALDESVAVFRNRERWMVWRRRGLEHHHHHH | not soluble |
| MSAWTMSDPYPATEAHAQRAAKSSPKSLLDRLLSLVRREPEDREGIKAILEAAHERELLDAESYAMIKGALAVSERTVADIMVPRSRMDLLDISQPLPQLLATIIETAHSRFPVYEDDRDNIIGILLAKDLLRYMLEPALDIRSLVRPAVFIPEVKRLNVLLREFRASRNHLAIVIDEHGGISGLVTMEDVLEQIVGDIEDEFDEDEEESIFPEGENQWRLTASTDISHFNATFATDLPDDEYDSVGGWLGGQLGRIPRRGDSADHDGLHIEVVRADARRALWLRVRRNAGAQPPASAAE | not soluble |
| MLIRTEAPADILTVDRLVRSAFDTEAEAKLVMSLRENSHLTLALVACSDDGEVIGHCLFSPVTLNGDDLNWQGLAPLCVKKEHQKQGIAEALVKEGLEMLTELGYPVVVVLGDSNYYQRFGFESATNYDMHSKWEVPEGAFMIKACSSEFLEGRSGLIEYCPEFDVL | not soluble |
| MGSDKIHHHHHHMTSREDEIRDFLATHGYADWNRTPLAGDASSRRYQRLRSPTGAKAVLMDWSPEEGGDTQPFVDLAQYLRNLDISAPEIYAEEHARGLLLIEDLGDALFTEVINNDPAQEMPLYRAAVDLLIHLHDAQTPELARLDPETLSEMTRLAFSEYRYAILGDAAEDNRKRFEHRFAQILSAQLEGDMVFVHRDFHAQNLLWLPEREGLARVGVIDFQDAKLGHRAYDLVSLLQDARRDVPAQVEAQMIDHYIQATGVDESHFRSAYAVIAVQRNMRILGIFARLSQRFGKRHYIEFVPRVWAHFERGLAHPALASAAEEILNALPAPAPEVLERLRA | not soluble |

— the DeepSol protein solubility set
